Measurements: patent US20080138847A1, “Bcl-2 family member and BH-3 only proteins for use in development of peptidomimetics” (priority 2004, published 2008)
“Also recorded” adds a separate entry of the source. Where no end group is shown, it is not given here.

How the values were obtained:
[1] = system: ced-1 (e1735); egl-1 (n1084 n3082) animals; assay: in vivo cell killing: cell corpses in four-fold transgenic embryos after heat-shock expression of EGL-1 fragments; design: species or system C. elegans; settings: anterior head region of four-fold transgenic embryos; heat-shock promoter expression
Experimental: In this example, the ability of EGL-1 mutants to disrupt the CED-4/CED-9 complex was tested. […] To examine this scenario, constructs were injected into ced-1 (e1735); egl-1 (n1084 n3082) animals that direct expression of various EGL-1 fragments under the control of the C. elegans heat-shock promoters. Cell corpses were scored in the anterior head region of four-fold transgenic embryos after the heat-shock treatment.

[2] = biological target: T1, CED-9 protein (residues 1-251) (Caenorhabditis elegans, UniProt P41958); assay: GST-EGL-1 fragment/mutant interaction with CED-9 (GST-mediated pull-down assay); assay type: binding, C. elegans; settings: GST-EGL-1 fragments or mutants, in vitro
T1 construct: made in house
T1 sequence (P41958 1-251): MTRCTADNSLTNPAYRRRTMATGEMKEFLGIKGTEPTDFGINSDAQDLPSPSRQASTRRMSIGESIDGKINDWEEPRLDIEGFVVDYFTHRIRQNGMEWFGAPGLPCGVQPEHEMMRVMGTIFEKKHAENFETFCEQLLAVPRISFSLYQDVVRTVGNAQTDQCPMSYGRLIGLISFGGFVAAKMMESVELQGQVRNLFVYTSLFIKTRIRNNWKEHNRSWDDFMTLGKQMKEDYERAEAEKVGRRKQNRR
Experimental: This example describes the characterization of EGL-1/CED-9 interactions. To determine the mechanism of CED-9 recognition by EGL-1, the EGL-1/CED-9 interaction was characterized. Various fragments of the GST-EGL-1 protein were evaluated for their abilities to interact with the CED-9 protein (residues 1-251).
To further characterize EGL-1/CED-9 interactions, a number of missense mutations were introduced into EGL-1 and the ability of the resulting EGL-1 mutants to interact with CED-9 was determined.
This example describes the biochemical and functional analysis of EGL-1/CED-9 interactions. To corroborate the structural analysis, mutations on the interface residues of EGL-1 were examined for their potential to weaken or disrupt its binding to CED-9. Various mutant EGL-1 fragments were purified as fusion proteins with glutathione S-transferase (GST) and their interactions with CED-9 were investigated using a GST-mediated pull-down assay.

CED-4/CED-9 complex = biological target: T2, CED-4/CED-9 complex (Caenorhabditis elegans, UniProt P41958); assay: CED-4 displacement assay (pre-assembled CED-4/CED-9 complex on glutathione resin challenged with EGL-1 fragments); assay type: biochemical, C. elegans; settings: in vitro, remaining complex visualized on SDS polyacrylamide gel
T2 sequence (P41958 1-251 limits assumed): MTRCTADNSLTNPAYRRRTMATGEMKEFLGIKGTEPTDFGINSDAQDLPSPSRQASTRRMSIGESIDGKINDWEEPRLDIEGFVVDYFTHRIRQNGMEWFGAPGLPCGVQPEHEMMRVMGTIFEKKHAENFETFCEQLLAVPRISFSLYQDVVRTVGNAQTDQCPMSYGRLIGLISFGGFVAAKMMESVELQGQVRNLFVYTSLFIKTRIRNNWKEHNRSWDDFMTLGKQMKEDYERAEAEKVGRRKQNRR
Text: EGL-1 induces apoptosis by displacing CED-4 from the CED-4/CED-9 complex. To recapitulate this finding in vitro, a CED-4 displacement assay was designed in which pre-assembled CED-4/CED-9 complex was immobilized on glutathione resin and was then challenged with various EGL-1 fragments. After extensive washing, the remaining CED-4/CED-9 complex was eluted from the resin and visualized on SDS polyacrylamide gel. […] In contrast, most missense mutations at the EGL-1/CED-9 interface weakened the ability of EGL-1 to displace CED-4 from the CED-4/CED-9 complex. […] The in vitro studies are in complete agreement with the structural observation.

CED-4 = biological target: T3, CED-4 (Caenorhabditis elegans, UniProt P30429); assay: interaction of CED-9 surface mutants with CED-4; assay type: binding, C. elegans; settings: purified CED-9 mutant proteins
T3 sequence (P30429 1-549): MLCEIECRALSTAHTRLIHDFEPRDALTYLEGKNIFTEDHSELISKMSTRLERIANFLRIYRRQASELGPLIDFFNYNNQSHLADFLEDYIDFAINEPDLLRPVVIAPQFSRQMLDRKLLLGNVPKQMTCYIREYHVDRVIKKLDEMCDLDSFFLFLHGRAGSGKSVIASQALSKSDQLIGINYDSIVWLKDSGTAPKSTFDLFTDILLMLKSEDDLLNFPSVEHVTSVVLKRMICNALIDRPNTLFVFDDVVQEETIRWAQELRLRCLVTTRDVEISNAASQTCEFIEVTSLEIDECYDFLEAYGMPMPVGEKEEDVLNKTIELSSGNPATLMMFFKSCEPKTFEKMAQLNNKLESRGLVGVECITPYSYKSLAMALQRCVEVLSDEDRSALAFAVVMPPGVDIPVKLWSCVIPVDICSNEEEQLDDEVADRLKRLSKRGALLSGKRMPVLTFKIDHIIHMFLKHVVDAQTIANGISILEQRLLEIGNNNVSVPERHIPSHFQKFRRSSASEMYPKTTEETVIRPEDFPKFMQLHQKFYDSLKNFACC
Experimental: This example describes the biochemical analysis of CED-4/CED-9 interactions. To further define the molecular mechanisms by which EGL-1 induces the release of CED-4 from CED-9-mediated sequestration, the identify of surface residues in CED-9 that are important for binding to CED-4 was analyzed. It was hypothesized that for molecular recognition to occur, at least some of the CED-9 residues that are important for binding to CED-4 must be solvent-exposed prior to binding. Therefore, the structure of CED-9 in isolation was examined and a total of 44 amino acids were identified, each with at least 30% of its surface area exposed to solvent. These 44 amino acids were grouped based on primary sequences and 20 CED-9 mutant clones were generated, each containing 1-5 missense mutations that together covering all 44 solvent-exposed residues. All 20 CED-9 proteins were cloned into an expression vector and over-expressed in E. coli and purified to homogeneity.
Next, the abilities of these CED-9 mutants to interact with CED-4 was examined. […] This surface patch may constitute the primary CED-4-binding motif. None of the other 16 mutations, which cover the entirety of the CED-9 surface, affected the CED-4/CED-9.

[3] = listed as EGL-1 double mutant (G55E/F65A)

Molecule: EGL-1 C-terminal fragment (residues 46-87): EGL-1 C-terminal fragment residues 46-87 expressed in vivo (DSSQFADDSGFFDDSEISSIGYEIGSKLAAMCDDFDAQMMSY; UniProt O61667 46-87, looked up, fragment)
- cell killing (cell corpses induced) [1]: about half the number of cell corpses as the full-length EGL-1

Molecule: N-terminal half (residues 1-45) of EGL-1: N-terminal half of EGL-1, residues 1-45 (MSNVFDVQSSVFYNEKNMFYSSSQDFSSCEDSSQFADDSGFFDDS; not fully specified)
- interaction with (binding to) CED-9 [2]: did not show detectable binding
- cell killing (cell corpses induced) [1]: did not induce cell death

Molecule: C-terminal half of EGL-1 (residues 45-91): C-terminal half of EGL-1, residues 45-91 (EDSSQFADDSGFFDDSEISSIGYEIGSKLAAMCDDFDAQMMSYSAHA; UniProt O61667 45-91, looked up, fragment)
- interaction with (binding to) CED-9 [2]: formed a stable complex

Molecule: mut4: EGL-1 quadruple mutant G55E/L58A/F65A/M69A (SEISSIGYEIESKAAAMCDDADAQAMSYSAHASDRSLFHRLLD; also: fused to a dimerising Fc or GST (left off))
- interaction with (binding to) CED-9 [2]: failed to bind to CED-9
- ability to displace CED-4 from the CED-4/CED-9 complex (CED-4/CED-9 complex): completely failed to disrupt the CED-4/CED-9 complex

Molecule: mut2: EGL-1 double mutant G55E/F65A (SEISSIGYEIESKLAAMCDDADAQMMSYSAHASDRSLFHRLLD; not fully specified)
- interaction with (binding to) CED-9 [2]: failed to bind to CED-9
- interaction with (binding to) CED-9 [2, 3]: failed to bind to CED-9
- interaction with (binding to) CED-9 ([2]; listed as G55E and F65A): completely abolished its interaction with CED-9
- cell killing (cell corpses induced) [1]: induced no cell killing
- ability to displace CED-4 from the CED-4/CED-9 complex (CED-4/CED-9 complex): completely failed to disrupt the CED-4/CED-9 complex
- ability to displace CED-4 from the CED-4/CED-9 complex (CED-4/CED-9 complex; [3]): failed to bind to CED-9 or to displace CED-4

Molecule: L58A: EGL-1 mutant, Leu58 substituted by Ala (SEISSIGYEIGSKAAAMCDDFDAQMMSYSAHASDRSLFHRLLD; not fully specified)
- interaction with (binding to) CED-9 [2]: did not significantly affect its interaction with CED-9; also recorded: retaining their ability to bind to CED-9
- ability to displace CED-4 from the CED-4/CED-9 complex (CED-4/CED-9 complex): significantly reduced ability

Molecule: C-terminal half of EGL-1 (amino acids 45-87): C-terminal half of EGL-1, residues 45-87 (SEISSIGYEIGSKLAAMCDDFDAQMMSYSAHASDRSLFHRLLD)
- interaction with (binding to) CED-9 [2]: necessary and sufficient; also recorded: formed a stable complex
- cell killing (cell corpses induced) [1]: necessary and sufficient
- ability to displace CED-4 from the CED-4/CED-9 complex (CED-4/CED-9 complex): completely displaced CED-4

B1: wild-type EGL-1 protein (residues 1-87): wild-type EGL-1 residues 1-87, lacking the four C-terminal hydrophobic residues (protein)
chain: MSNVFDVQSSVFYNEKNMFYSSSQDFSSCEDSSQFADDSGFFDDSEISSIGYEIGSKLAAMCDDFDAQMMSYSAHASDRSLFHRLLD
- ability to displace CED-4 from the CED-4/CED-9 complex (CED-4/CED-9 complex): completely displaced CED-4

B2: G55E: EGL-1 mutant, Gly55 substituted by glutamate (protein, UniProt O61667 1-106, looked up, variant G55E)
Programmed cell death …: MLMLTFASTSSDLLPMSNVFDVQSSVFYNEKNMFYSSSQDFSSCEDSSQFADDSEFFDDSEISSIGYEIGSKLAAMCDDFDAQMMSYSAHASDRSLFHRLLDFFAF
- interaction with (binding to) CED-9 [2]: not sufficient to abolish interaction with CED-9; also recorded: retaining their ability to bind to CED-9
- interaction with (binding to) CED-9 ([2]; listed as EGL-1 (G55E)): retained its ability to interact with CED-9
- cell killing (cell corpses induced) [1]: significantly lower level than that of the wild-type EGL-1 protein
- ability to displace CED-4 from the CED-4/CED-9 complex (CED-4/CED-9 complex): significantly reduced ability
- ability to displace CED-4 from the CED-4/CED-9 complex (CED-4/CED-9 complex; listed as EGL-1 (G55E)): decreased ability to disrupt the CED-4/CED-9 complex

B3: F146N: CED-9 mutant F146N (protein)
chain: MTRCTADNSLTNPAYRRRTMATGEMKEFLGIKGTEPTDFGINSDAQDLPSPSRQASTRRMSIGESIDGKINDWEEPRLDIEGFVVDYFTHRIRQNGMEWFGAPGLPCGVQPEHEMMRVMGTIFEKKHAENFETFCEQLLAVPRISNSLYQDVVRTVGNAQTDQCPMSYGRLIGLISFGGFVAAKMMESVELQGQVRNLFVYTSLFIKTRIRNNWKEHNRSWDDFMTLGKQMKEDYERAEAEKVGRRKQNRR
- interaction with CED-4 (CED-4): significantly weakened interactions with CED-4

B4: N158A/A159G/Q160A: CED-9 mutant N158A/A159G/Q160A (protein)
chain: MTRCTADNSLTNPAYRRRTMATGEMKEFLGIKGTEPTDFGINSDAQDLPSPSRQASTRRMSIGESIDGKINDWEEPRLDIEGFVVDYFTHRIRQNGMEWFGAPGLPCGVQPEHEMMRVMGTIFEKKHAENFETFCEQLLAVPRISFSLYQDVVRTVGAGATDQCPMSYGRLIGLISFGGFVAAKMMESVELQGQVRNLFVYTSLFIKTRIRNNWKEHNRSWDDFMTLGKQMKEDYERAEAEKVGRRKQNRR
- interaction with CED-4 (CED-4): significantly weakened interactions with CED-4

B5: R211E/N212G: CED-9 mutant R211E/N212G (protein)
chain: MTRCTADNSLTNPAYRRRTMATGEMKEFLGIKGTEPTDFGINSDAQDLPSPSRQASTRRMSIGESIDGKINDWEEPRLDIEGFVVDYFTHRIRQNGMEWFGAPGLPCGVQPEHEMMRVMGTIFEKKHAENFETFCEQLLAVPRISFSLYQDVVRTVGNAQTDQCPMSYGRLIGLISFGGFVAAKMMESVELQGQVRNLFVYTSLFIKTRIEGNWKEHNRSWDDFMTLGKQMKEDYERAEAEKVGRRKQNRR
- interaction with CED-4 (CED-4): significantly weakened interactions with CED-4
